Laboratory results reported in US20260250320A1, “LIPIDATED PEPTIDE INHIBITORS OF INTERLEUKIN-23 RECEPTOR” (Janssen Pharmaceutica NV, priority 2023, published 2026).
*1 amine or outer side, *2 acyl side, *3 side chain or, on linkers, in order; H or OH if unused. Bridges are numbered along the chain shown (N, C = ends). Primed or numbered codes have the meaning given here. Where no end group is shown, it is not given here. Side-chain parts run from the residue outwards. [ ]: non-standard residue; d: D form. The star is where a group is joined. code d = side-chain group of K(d): lysine given as (2R)-2-(4-((5-amino-5-carboxypentyl)amino)-4-oxobutanamido)-3-carboxy-N,N,N-trimethylpropan-1-aminium, C[N+](C)(C)C[C@@H](CC(=O)O)NC(=O)CCC(=O)*; K(d) = (2R)-2-(4-((5-amino-5-carboxypentyl)amino)-4-oxobutanamido)-3-carboxy-N,N,N-trimethylpropan-1-aminium, C[N+](C)(C)C[C@@H](CC(=O)[*:3])NC(=O)CCC(=O)NCCCC[C@H](N[*:1])C(=O)[*:2]; TMAPF = 5-(4-(2-amino-2-carboxyethyl)phenoxy)-N,N,N-trimethylpentan-1-aminium, C[N+](C)(C)CCCCCOc1ccc(C[C@H](N[*:1])C(=O)[*:2])cc1; code d″ = lysine side-chain amide of a carnitine-succinyl group ((2R)-3-carboxy-N,N,N-trimethylpropan-1-aminium amide; PEG2′ = PEG2 spacer unit (not further defined); Trp(7-Me) = Cc1cccc2c(C[C@H](N)C(=O)O)c[nH]c12; γGlu = O=C(O)[C@H](CCC(=O)[*:2])N[*:1]; 2Nal = N[C@@H](Cc1ccc2ccccc2c1)C(=O)O; AEF = NCCOc1ccc(C[C@H](N)C(=O)O)cc1; 3Pal = N[C@@H](Cc1cccnc1)C(=O)O; succiniccarn = not defined here; NMeK = CN[C@@H](CCCCN)C(=O)O; NMecPEG3a = not defined here; Pen = CC(C)(S)[C@H](N)C(=O)O; NMeC18OH = not defined here; PEG2(3) = not defined here; 5cpaCO = not defined here; PEG12′ = not defined here; PEG2″ = PEG2 spacer unit; Thp = NC1(C(=O)O)CCOCC1; Sar = CNCC(=O)O

T1: interleukin-23 receptor (IL-23R) (UniProt Q5VWK5 24-629, limits assumed)
T1 sequence (looked up): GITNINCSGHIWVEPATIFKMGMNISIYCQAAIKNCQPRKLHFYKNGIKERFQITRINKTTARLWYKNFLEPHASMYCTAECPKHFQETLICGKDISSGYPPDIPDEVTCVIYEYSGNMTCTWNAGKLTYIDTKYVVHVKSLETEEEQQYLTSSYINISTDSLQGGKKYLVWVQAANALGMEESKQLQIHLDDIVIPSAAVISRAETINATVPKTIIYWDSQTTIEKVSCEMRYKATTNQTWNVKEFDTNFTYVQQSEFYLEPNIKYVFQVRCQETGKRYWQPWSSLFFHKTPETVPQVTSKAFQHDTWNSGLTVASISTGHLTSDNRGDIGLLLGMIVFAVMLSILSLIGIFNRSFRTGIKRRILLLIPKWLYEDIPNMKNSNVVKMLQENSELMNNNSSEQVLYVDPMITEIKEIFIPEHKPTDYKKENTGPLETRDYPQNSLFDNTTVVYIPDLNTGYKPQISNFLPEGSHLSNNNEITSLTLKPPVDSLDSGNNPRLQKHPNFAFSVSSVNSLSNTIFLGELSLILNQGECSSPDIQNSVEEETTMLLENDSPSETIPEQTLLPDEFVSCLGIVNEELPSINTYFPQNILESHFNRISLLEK

B1: SEQ ID NO: 86 (peptide)
peptide: XNTXKXXXXKNXX
modifications: MeCO-Pen(3)-N-T-7MeW-K(NMecPEG3a)-Pen(3)-AEF-2Nal-THP-K(PEG2PEG2gEC18OH)-N-3Pya-Sar-CONH2
B2: SEQ ID NO: 73 (peptide)
peptide: [dR][Pen]K([PEG2″-PEG2″-γGlu-C18OH])T[Trp(7-Me)]K(Ac)[Pen][AEF][2Nal][Thp]EN[3Pal][Sar]-NH2
modifications: disulfide 2-7 (inferred); not fully specified (N-terminus); printed as 5cpaCO-r-Pen(3)-K(PEG2PEG2gEC18OH)-T-7MeW-K(Ac)-Pen(3)-AEF-2Nal-THP-E-N-3Pya-Sar-CONH2
B3: SEQ ID NO: 72 (peptide)
peptide: [dR][Pen]NT[Trp(7-Me)]K([PEG2″-PEG2″-C18OH])[Pen][AEF][2Nal][Thp]EN[3Pal][Sar]-NH2
modifications: disulfide 2-7 (inferred); not fully specified (N-terminus); printed as cPEG3aCO-r-Pen(3)-N-T-7MeW-K(PEG2PEG2C18OH)-Pen(3)-AEF-2Nal-THP-E-N-3Pya-Sar-CONH2
B4: SEQ ID NO: 78 (peptide)
peptide: XNTXXXXXXKNXX
modifications: cPEG3aCO-Pen(3)-N-T-7MeW-K(Ac)-Pen(3)-AEF-2Nal-THP-K(PEG2PEG2gEC18OH)-N-3Pya-Sar-CONH2
B5: SEQ ID NO: 77 (peptide)
peptide: XNTXXXXXXKNXX
modifications: 5cpaCO-Pen(3)-N-T-7MeW-K(Ac)-Pen(3)-AEF-2Nal-THP-K(PEG2PEG2gEC18OH)-N-3Pya-Sar-CONH2
B6: SEQ ID NO: 50 (peptide)
peptide: XNTXXXXXXXNXXK
modifications: MeCO-Pen(3)-N-T-7MeW-K(Ac)-Pen(3)-AEF-2Nal-THP-K(d)-N-3Pya-Sar-K(PEG2PEG2gEC18OH)-CONH2
B7: SEQ ID NO: 81 (peptide)
peptide: 5cpaCO-[dR][Pen]NT[Trp(7-Me)]K(Ac)[Pen][AEF][2Nal][Thp]EN[3Pal][Sar]K([PEG2′-PEG2′-γGlu-C18OH])-NH2
modifications: disulfide 2-7 (inferred); reading uncertain; also: printed as 5cpaCO-r-Pen(3)-N-T-7MeW-K(Ac)-Pen(3)-AEF-2Nal-THP-E-N-3Pya-Sar-K(PEG2PEG2gEC18OH)-CONH2
B8: SEQ ID NO: 55 (peptide)
peptide: [dR][Pen]K([PEG2″-PEG2″-γGlu-C18OH])T[Trp(7-Me)]K(Ac)[Pen][AEF][2Nal][Thp]EN[3Pal][Sar]-NH2
modifications: disulfide 2-7 (inferred); not fully specified (N-terminus); printed as cPEG3aCO-r-Pen(3)-K(PEG2PEG2gEC18OH)-T-7MeW-K(Ac)-Pen(3)-AEF-2Nal-THP-E-N-3Pya-Sar-CONH2
B9: SEQ ID NO: 49 (peptide)
peptide: succiniccarn-[dR][Pen]NT[Trp(7-Me)]K(Ac)[Pen][AEF][2Nal][Thp]K([PEG2″-PEG2″-γGlu-C18OH])N[3Pal][Sar]-NH2
modifications: disulfide 2-7 (inferred); reading uncertain; also: printed as succiniccarn-r-Pen(3)-N-T-7MeW-K(Ac)-Pen(3)-AEF-2Nal-THP-K(PEG2PEG2gEC18OH)-N-3Pya-Sar-CONH2
B10: SEQ ID NO: 79 (peptide)
peptide: Ac-[dR][Pen]NT[Trp(7-Me)]K([PEG2′-PEG2′-γGlu-C18OH])[Pen][AEF][2Nal][Thp]K(NMecPEG3a)N[3Pal][Sar]-NH2
modifications: disulfide 2-7 (inferred); reading uncertain; also: printed as MeCO-r-Pen(3)-N-T-7MeW-K(PEG2PEG2gEC18OH)-Pen(3)-AEF-2Nal-THP-K(NMecPEG3a)-N-3Pya-Sar-CONH2
B11: SEQ ID NO: 71 (peptide)
peptide: [dR][Pen]NT[Trp(7-Me)]K([PEG2″-PEG2″-C18OH])[Pen][AEF][2Nal][Thp]EN[3Pal][Sar]-NH2
modifications: disulfide 2-7 (inferred); not fully specified (N-terminus); printed as 5cpaCO-r-Pen(3)-N-T-7MeW-K(PEG2PEG2C18OH)-Pen(3)-AEF-2Nal-THP-E-N-3Pya-Sar-CONH2
B12: SEQ ID NO: 54 (peptide)
peptide: succiniccarn-[dR][Pen]NT[Trp(7-Me)]K(Ac)[Pen][AEF][2Nal][Thp]EN[3Pal][Sar]K([PEG2″-PEG2″-γGlu-C18OH])-NH2
modifications: disulfide 2-7 (inferred); reading uncertain; also: printed as succiniccarn-r-Pen(3)-N-T-7MeW-K(Ac)-Pen(3)-AEF-2Nal-THP-E-N-3Pya-Sar-K(PEG2PEG2gEC18OH)-CONH2
B13: SEQ ID NO: 10 (peptide)
peptide: Ac-[dR][Pen][K(d)]T[Trp(7-Me)]K(Ac)[Pen][AEF][2Nal][Thp]EN[3Pal][Sar]-NH2
modifications: disulfide 2-7 (inferred); not fully specified (residue 8); printed as MeCO-r-Pen(3)-K(d)-T-7MeW-K(Ac)-Pen(3)-AEF(PEG2PEG2gEC18OH)-2Nal-THP-E-N-3Pya-Sar-CONH2
B14: SEQ ID NO: 65 (peptide)
peptide: Ac-[dR][Pen]NT[Trp(7-Me)]K([PEG2″-PEG2″-γGlu-C18OH])[Pen][AEF][2Nal][Thp]EN[3Pal][Sar]
modifications: disulfide 2-7 (inferred); not fully specified (C-terminus); printed as MeCO-r-Pen(3)-N-T-7MeW-K(PEG2PEG2gEC18OH)-Pen(3)-AEF-2Nal-THP-E-N-3Pya-Sar-CONH(PEG3a)
B15: SEQ ID NO: 1 (peptide)
peptide: XNTXXXXXXENXXK
modifications: MeCO-Pen(3)-N-T-7MeW-K(Ac)-Pen(3)-AEF-2Nal-THP-E-N-3Pya-Sar-K(Sar-S-Sar-S-Sar-S-Sar-C14)-CONH2
B16: SEQ ID NO: 147 (peptide)
peptide: XNTXXXXXXENXX
modifications: not fully specified; MeCO-Pen(3)-N-T-7MeW-K(Ac)-Pen(3)-AEF-2Nal-THP-E-N-3Pya-Sar-CO(PEG2PEG2gEC18OH)
B17: SEQ ID NO: 64 (peptide)
peptide: XNTXXXXXXKNXX
modifications: not fully specified; MeCO-Pen(3)-N-T-7MeW-K(Ac)-Pen(3)-AEF-2Nal-THP-K(PEG2PEG2gEC18OH)-N-3Pya-Sar-CONH(PEG3a)

target: T1, interleukin-23 receptor (IL-23R); assay: cell-based or functional assay

Binder | PBMC pSTAT3 IC50
B1 | < 0.5 nM
Ac-[dR][Pen]NT[Trp(7-Me)]K(code d″)[Pen][AEF][2Nal][Thp]EN[3Pal][Sar]K([PEG2″-PEG2″-γGlu-C18OH])-NH2 (disulfide 2-7 (inferred)) [SEQ ID NO: 52] | < 0.5 nM
Ac-[dK]([PEG2″-PEG2″-γGlu-C18OH])[Pen]NT[Trp(7-Me)]K(Ac)[Pen][AEF][2Nal][Thp]EN[3Pal][Sar]-NH2 (disulfide 2-7) [SEQ ID NO: 58] | < 0.5 nM
Ac-[dR][Pen]NT[Trp(7-Me)]K(Ac)[Pen][AEF][2Nal][Thp]K([PEG12′-γGlu-C18OH])N[3Pal][Sar]-NH2 (disulfide 2-7 (inferred)) [SEQ ID NO: 146] | < 0.5 nM
B2 | < 0.5 nM
B3 | < 0.5 nM
Ac-[dR][Pen]NT[Trp(7-Me)]K(code d)[Pen][AEF][2Nal][Thp]K([PEG2′-PEG2′-γGlu-C18OH])N[3Pal][Sar]-NH2 (disulfide 2-7 (inferred)) [SEQ ID NO: 48] | < 0.5 nM
B4 | < 0.5 nM
cPEG3aCO-[dR][Pen]NT[Trp(7-Me)]K(Ac)[Pen][AEF][2Nal][Thp]EN[3Pal][Sar]K([PEG2(3)-PEG2(3)-γGlu-C18OH])-NH2 (disulfide 2-7 (inferred)) [SEQ ID NO: 160] | < 0.5 nM
Ac-[dR][Pen]K(code d″)T[Trp(7-Me)]K(Ac)[Pen][AEF][2Nal][Thp]EN[3Pal][Sar]K([PEG2″-PEG2″-γGlu-C18OH])-NH2 (disulfide 2-7 (inferred)) [SEQ ID NO: 53] | < 0.5 nM
XNTXXXXXXKNXX (MeCO-Pen(3)-N-T-7MeW-K(Ac)-Pen(3)-AEF-2Nal-THP-K(PEG12gEC20OH)-N-3Pya-Sar-CONH2) [SEQ ID NO: 162] | < 0.5 nM
B5 | < 0.5 nM
B6 | < 0.5 nM
B7 | < 0.5 nM
B8 | < 0.5 nM
Ac-[Pen]NT[Trp(7-Me)]K(Ac)[Pen][TMAPF][2Nal][Thp]K([PEG2′-PEG2′-γGlu-C18OH])N[3Pal][Sar]-NH2 (disulfide 1-6 (inferred)) [SEQ ID NO: 85] | < 0.5 nM
Ac-[dR][Pen]NT[Trp(7-Me)]K(Ac)[Pen][AEF][2Nal][Thp]EN[3Pal][NMeK]([PEG2′-NMePEG2-NMegE-NMeC18OH])-NH2 (disulfide 2-7 (inferred); reading uncertain) [SEQ ID NO: 80] | < 0.5 nM
B9 | < 0.5 nM
Ac-[dR][Pen]NT[Trp(7-Me)]K([PEG2″-PEG2″-γGlu-C18OH])[Pen][AEF][2Nal][Thp]EN[3Pal][Sar]-NH2 (disulfide 2-7) [SEQ ID NO: 59] | < 0.5 nM
B10 | < 0.5 nM
B11 | < 0.5 nM
B12 | < 0.5 nM

target: T1, interleukin-23 receptor (IL-23R); assay: cell-based or functional assay; remark: another data set of the same source

Binder | IC50, IL23R reporter assay
RXNTWXXXXXENXX (C12gEPEG2PEG2CO-r-Abu(1)-N-T-W-K(Ac)-aMeC(1)-AEF-2Nal-THP-E-N-3Pya-Sar-CONH2) [SEQ ID NO: 5] | < 50 nM
B13 | < 50 nM
B14 | ≥ 500 nM
B15 | < 50 nM
Ac-[dR][Pen]K([PEG2(3)-PEG2(3)-γGlu-C18OH])T[Trp(7-Me)]K(Ac)[Pen][AEF][2Nal][Thp][K(d)]N[3Pal][Sar]-NH2 (disulfide 2-7 (inferred)) [SEQ ID NO: 12] | < 50 nM
B16 | ≥ 500 nM
B17 | ≥ 500 nM
